According to PMC5963734 (Neuron, 2018):
No end group written: not given here.

Target: full length calmodulin (recombinant, Xenopus cDNA), used with Ca2+ (Xenopus, UniProt P0DP33 1-149)
Test: fluorescence polarisation

binding result: binds
Binder: fluorescein-MDCLCIVTTKKYR (cysteine pairing not given here) [fluorescein-labeled PSD-95 peptide 1-13]
